Substrate: CC(=O)Oc1ccc([N+](=O)[O-])cc1
Experiment: purified protein
Assay type: biochemical, Alkalibacterium sp. SL3
Details: 50 mM Tris-HCl pH 9.0, 30 °C, 5 min, 0.05–5 mM substrate

B1: EstSL3 (rEstSL3) (Alkalibacterium sp. SL3) (protein)
chain: MKINKNDTLLFIGDSITDVGRDRMDGEDLGKGFPLMVASHLQSRYPAKRLTVLNRGIGGDSLKDLKRRWEDDCLITNPDIVTLLIGVNDTWRNQNDGVELTDEELDEFESDYRFLLKSLHQRTDARVILMESFVLPYPKRRVGWRNDLDKRIQIVRKMARDYQTELIPLDGLLNAAGIRDGFSYYTGDDGVHPTVAGHGLIANSWLKAVDE
notes: His6-tagged from pET-28a(+) (NcoI-HindIII), E. coli BL21(DE3), Ni-NTA; internal peptides LTVLNRGIGGDSLKDLK, TDARVILMESFVLPYPKR, VGWRNDLDK; catalytic Ser15, Asp189, His192
B1 showed a Km of 150 ± 10 µM and a kcat of 307.69 s⁻¹.
